Data on one molecule can be found in patent US20080076129A1, “Method of Detecting an Increased Susceptibility to Breast Cancer” (priority 2000, published 2008).

Data set [1] concerns the target T1, CYP1B1 (Homo sapiens, UniProt Q16678, L432V).
T1 construct: made in house; host or cells: Escherichia coli DH5αF′Iq
T1 sequence (Q16678 26-543 L432V): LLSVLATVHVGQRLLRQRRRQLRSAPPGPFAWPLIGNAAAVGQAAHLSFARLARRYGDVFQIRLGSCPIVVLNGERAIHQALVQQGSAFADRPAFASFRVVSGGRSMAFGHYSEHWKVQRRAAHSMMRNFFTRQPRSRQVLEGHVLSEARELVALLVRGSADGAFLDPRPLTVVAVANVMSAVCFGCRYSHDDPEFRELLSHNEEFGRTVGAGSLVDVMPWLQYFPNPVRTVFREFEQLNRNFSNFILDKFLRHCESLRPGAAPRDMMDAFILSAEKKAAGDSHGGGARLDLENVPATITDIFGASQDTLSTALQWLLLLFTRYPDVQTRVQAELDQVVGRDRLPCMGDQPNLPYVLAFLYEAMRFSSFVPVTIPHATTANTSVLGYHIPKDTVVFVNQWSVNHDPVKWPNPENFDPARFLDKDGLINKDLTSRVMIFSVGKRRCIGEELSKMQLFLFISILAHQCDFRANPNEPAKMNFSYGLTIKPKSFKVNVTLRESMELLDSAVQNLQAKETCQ
Briefly: Assay of CYP1B1 E2 hydroxylation activity. In kind it is biochemical. The settings on record: text and FIG. 4; read-out: 2-OH-E2 hydroxylation Km. Here is the method: (§1) Assay of CYP1B1 E2 Hydroxylation Activity. Purified CYP1B1 (200 pmol) was reconstituted with a 2-fold molar amount of recombinant rat NADPH-P450 reductase (400 pmol), purified as previously described, and 60 μg of L-α-dilauroyl-sn-glycero-3-phosphocholine in the presence of sodium cholate (0.005%, w/v) in 0.4 ml of 100 mM potassium phosphate buffer, pH 7.4, containing varying concentrations of E2 (2, 3, 6, 9, 12, 15, 20, 40, 60, 80, and 100 μM) and 1 mM ascorbate. An NADPH-generating system consisting of 5 mM glucose 6-phosphate and 0.5 U of glucose-6-phosphate dehydrogenase/ml was added and reactions initiated by adding NADP+ to a final concentration of 0.5 mM. Reactions proceeded for 10 min at 37° C. with gentle shaking and then were terminated by addition of 2 ml CH2Cl2.
(§2) Extraction and Gas Chromatography/Mass Spectrometry Analysis of E2 and Metabolites. A deuterated internal standard (100 μl of 8 mg/liter E2-2, 4, 16, 16-d4 in methanol; CDN Isotopes, Pointe-Claire, Quebec) was added and all steroids extracted into CH2Cl2 by vortex mixing for 30 s. 1.5 ml of the CH2Cl2 fraction was evaporated to dryness under air and volatile TMS derivatives prepared by heating the residue with 100 μl of 50% NO-bis(trimethylsilyl)trifluoroacetamide/1% trimethyl chlorosilane in acetonitrile at 56° C. for 30 min. The TMS derivatives of E2 and its metabolites were separated by gas chromatography (H-P 5890, Hewlett-Packard, Wilmington, Del.) on a 5% phenyl methyl silicone stationary phase fused silica capillary column (30 m×0.2 mm×0.5 μm film, HP5; Hewlett-Packard). Helium carrier gas was used at a flow of 1 ml/min. The injector was operated at 250° C., with 2 μl injected in the splitless mode, with a purge (60 ml/min helium) time of 0.6 min. The oven temperature was held at 189° C. for 0.5 min, then raised at 6° C./min to 250° C. where it was held for 17 min, then raised to 300° C. at 8° C./min to give a total run time of 35.42 min. […] The EI mass spectrometer (H-P 5970) was operated in the selected ion monitoring mode from 18 to 34 min. Ions monitored were TMS2-E2-d4 420, 288, 330; TMS2-E2 416, 285, 326; TMS3-2-OH-E2 504, 373; TMS3-4-OH-E2 504, 373, 325; TMS3-16α-OH-E2 345, 311, 504. The instrument was calibrated by simultaneous preparation of an 11-point calibration over the range […]/tube of each compound. […] Internal standard added prior to extraction compensated for deviation from 100% recovery.
(§3) Statistical Analysis. Kinetic parameters (Km and kcat) were determined by nonlinear regression analysis using the computer program GraphPad PRISM (San Diego, Calif.).

Data set [2] concerns CYP1B1. Nature of the data set: Assay of CYP1B1 E2 hydroxylation activity. The class given is biochemical, human. To be noted: for 2-OH-Estradiol kcat: E2 2-hydroxylation; for 4-OH-Estradiol kcat: E2 4-hydroxylation; for 16a-OH-Esrradiol kcat: E2 16α-hydroxylation. Here is the method:
as §1, §2, §3

B1: Wild type: purified recombinant His-tagged CYP1B1 with 48Arg, 119Ala, 432Val, 453Asn (protein)
chain: HHHHHHLLSVLATVHVGQRLLRQRRRQLRSAPPGPFAWPLIGNAAAVGQAAHLSFARLARRYGDVFQIRLGSCPIVVLNGERAIHQALVQQGSAFADRPAFASFRVVSGGRSMAFGHYSEHWKVQRRAAHSMMRNFFTRQPRSRQVLEGHVLSEARELVALLVRGSADGAFLDPRPLTVVAVANVMSAVCFGCRYSHDDPEFRELLSHNEEFGRTVGAGSLVDVMPWLQYFPNPVRTVFREFEQLNRNFSNFILDKFLRHCESLRPGAAPRDMMDAFILSAEKKAAGDSHGGGARLDLENVPATITDIFGASQDTLSTALQWLLLLFTRYPDVQTRVQAELDQVVGRDRLPCMGDQPNLPYVLAFLYEAMRFSSFVPVTIPHATTANTSVLGYHIPKDTVVFVNQWSVNHDPLKWPNPENFDPARFLDKDGLINKDLTSRVMIFSVGKRRCIGEELSKMQLFLFISILAHQCDFRANPNEPAKMNFSYGLTIKPKSFKVNVTLRESMELLDSAVQNLQAKETCQ
As a reminder, the Km is the concentration of substrate that gives half-maximal velocity. In the case of B1, the Km in the data set with CYP1B1 [1] amounted to 34 ± 4 µM. The 2-OH-Estradiol kcat in the data set on CYP1B1 [2], with CYP1B1 [2] (listed as Wild type CYP1B1) and in the data set with CYP1B1 [2] (listed as wild type CYP1B1) was 0.0317 ± 0.0017 s⁻¹ throughout. Also, the 4-OH-Estradiol kcat in the data set with CYP1B1 [2], with CYP1B1 [2] (listed as Wild type CYP1B1) and with CYP1B1 [2] (listed as wild type CYP1B1) was 0.0733 ± 0.0067 s⁻¹ each time. In addition, the 16a-OH-Esrradiol kcat with CYP1B1 [2], in the data set with CYP1B1 [2] (listed as Wild type CYP1B1) and in the data set with CYP1B1 [2] (listed as wild type CYP1B1) was 0.005 ± 0.00033 s⁻¹ each time.
